This is an account of results in the DeepSol protein solubility set.

This series is described as follows: soluble on expression in E. coli; label from the status in PepcDB or PDB records.
“GEEEKKRTARTDYWLQPEIIVKIITKKLGEKYHKKKAIVKEVIDKYTAVVKMIDSGDKLKLDQTHLETVIPAPGKRILVLNGGYRGNEGTLESINEKTFSATIVIETGPLKGRRVEGIQYEDISKLA”: the “soluble on expression in E. coli” value was “soluble”.
As to “MSLASLPISNFFTFNHQSTLFTKVKNFMGVKHIGDCMKALINGTIYTSFSPVKKVSGLVISNERVLYAGDSSTALRIAELAGGEIIDLKGKFVMPAFFDSHLHLDELGMSLEMVDLRGVKSMEELVERVKKGRGRIIFGFGWDQDELGRWPTREDLDVIDRPVFLYRRCFHVAVMNSKMIDLLNLKPSKDFDESTGIVRERALEESRKIINEKILTVKDYKHYIESAQEHLLSLGVHSVGFMSVGEKALKALFELEREGRLKMNVFAYLSPELLDKLEELNLGKFEGRRLRIWGVKLFVDGSLGARTALLSEPYTDNPTTSGELVMNKDEIVEVIERAKPLGLDVAVHAIGDKAVDVALDAFEEAEFSGRIEHASLVRDDQLERIKELKVRISAQPHFIVSDWWIVNRVGEERAKWAYRLKTLSSITKLGFSTDSPIEPADPWVSIDAAVNRYVVDPGERVSREEALHLYTHGSAQVTLAEDLGKLERGFRAEYIILDRDPLKEMKGIITITTDPNSSSVDKLAAALEHHHHHH”, the “soluble on expression in E. coli” value is reported as “soluble”.
For “MRQHTRIANHNHYSWRIAVMTDTHSIAQPFEAEVSPANNRHVTVGYASRYPDYSRIPAITLKGQWLEAAGFATGTAVDVKVMEGCIVLTAQPPAAEESELMQSLRQVCKLSARKQKQVQAFIGVIAGKQKVA”, the “soluble on expression in E. coli” value is “not soluble”.
Regarding “MSRDNQEIKAPEESSAEEQKEMDDKVTSPEKAEEIKLKSRYPNIGPKPGGSDFLRKRLQKGQKYFDSGDYNMAKAKMKNKQLPTAAPDKTEVTGDHIPTPQDLPQRKPSLVASKLAG”, the “soluble on expression in E. coli” value is “soluble”.
Turning to “MGSDKIHHHHHHMEIKILVDNTAKGKFLAQSGFSAIIKDEDSKILFDCGQNAHVFENNLKLMGEDDDFDAVIFSHGHYDHTDGFNYFIEKYGENLDVPIYIHKSAFVDRYHGERYIGIDENIKNFLKNYKNLKLIEDPFKISENLIISGTIPRTNFYERENFEMIENGQKVDDIIIDDMFVIVKDIIISGCTHSGLINCITHAKTLKEVNGIIGGFHMGTASENYINQVKNYLKTQNFRLVSPVHCTGFNATKELSDISGFKFGHVGSVFEI”, the “soluble on expression in E. coli” value is “not soluble”.
With “MFFSVVIPTYNRLPILEKCLRALEQQTFDETLISGYEIVVVDDGSTDGTLAWLDGHCQGFPHVRTWEQDHQGPAAARNLGVKEAAGDTIIFIDSDLVVTDIFLQAHAEGLQRGQKQYNSDRVFTYGAVVNTCNFDSPQSEPYKLTDYSAAFFATGNVAIAKQWLLEAGLFDTGFQLYGWEDLELGVRLKNLGLKLVKCPRAVGYHWHPPFSLQQIPKLIDQEIQRGRMGVLFYQKHPTWEVRLMIQMTRLHWFLWGLLSLGGRLNEKTMAPLLQWLIDHDRPQLALEIARIFLNWYNVQGVYAAFAESQSSHLEHHHHHH” the entry was “not soluble”; with “MGHHHHHHSHMKMGYEEVSQKFTSIRRVRGDNYCALRATLFQAMSQAVGLPPWLQDPELMLLPEKLISKYNWIKQWKLGLKFDGKNEDLVDKIKESLTLLRKKWAGLAEMRTAEARQIACDELFTNEAEEYSLYEAVKFLMLNRAIELYNDKEKGKEVPFFSVLLFARDTSNDPGQLLRNHLNQVGHTGGLEQVEMFLLAYAVRHTIQVYRLSKYNTEEFITVYPTDPPKDWPVVTLIAEDDRHYNIPVRVCEETSL”, “soluble”.
Next, “MLPLEPYLTQTSAVPQMSHFMCHSPTHKPQGLLPWAPFHQASVSLYPISPWPSESVCPPTCPGGASCWFPAGNAWDRVELGFLGFGAGGVSIAVPGFPLSCGQGCCAGGWLGHGARFPAKLRAFPQVIRRGWLTINNISLMKGGSKEYWFVLTAESLSWYKDEEEKEKKYMLPLDNLKIRDVEKGFMSNKHVFAIFNTEQRNVYKDLRQIELACDSQEDVDSWKASFLRAGVYPEKDQAENEDGAQENTFSMDPQLERQVETIRNLVDSYVAIINKSIRDLMPKTIMHLMINNTKAFIHHELLAYLYSSADQSSLMEESADQAQRRDDMLRMYHALKEALNIIGDISTSTVSTPVPPPVDDTWLQSASSHSPTPQRRPVSSIHPPGRPPAVRGPTPGPPLIPVPVGAAASFSAPPIPSRPGPQSVFANSDLFPAPPQIPSRPVRIPPGIPPGVPRRPPAAPSRPTIIRPAEPSLLD”: “soluble”; “MLAPWQPLLEWWFGWGTSAQAVADEKSTLWFGKHYDADAHALFGDLVEHALAGGLEEWQQTPQGWLGLLILLDQLPRMIYRDTPRAFEGDRRAQVVAMQGLQKGWDYQLLPIQRVFVLLVLEHAEVLDWQNLCVERYRMLLDEQPEANRRLFEGFLDYAEQHQRVIARFGRFPHRNLVLERPSTSEEMDFLLEPGSRF”: “not soluble”.
“MAKEFLIELGTEELPPTQLRTLAEAFAANFEAELKGAELAHEGVKWFAAPRRLALKVAALAESQSDKVVEKRGPAVSAAFDAEGNPTKAAQGWARGCGITVDQADRMVTDKGEWLLFKQEVKGQPTSEIVVELAAKALANLPIAKPMRWGNKTTQFIRPVKTLTMLMGSDLIEGEILGVASSRTIRGHRFMGEKEFTIDSAEQYPAILEERGKVMADYEARKAIILADAQKAAAAVGGIADLEDDLVEEVTSLVEWPVVLTAKFEEEFLKVPSEALVYTMKGDQKYFPVYDENKKLLPNFIFVSNIESKEPRYVIEGNEKVVRPRLADAEFFFNTDRKRPLIDRLPELEQAIFQQQLGTIKDKTDRITELAGYIAEQIGADVEKSKRAGLLAKCDLMTSMVFEFTDTQGVMGMHYARHDGEAEEVAVALNEQYMPRFAGDELPSNGVSTAVAMADKLDTIVGIFGIGQAPKGSDPFALRRASLGVLRIIVEYGYNLDLVDLVAKAKSLFGDRLTNDNVEQDVIEFMLGRFRAWYQDEGFSVDIIQAVLARRPTK”: the “soluble on expression in E. coli” value is “not soluble”.
For “MAHHHHHHMNLIVHDLDFMKRILLNDERKWGEESAPGEGRTESSHQPKIITIVLNNTLCAHSAKFIANSDVLICADGGANRLYNLCQSLATERGAIDDEGSSLKGEEDKNTALHASHTNERSHHVSGRHTISDLFNMPVEKKEKALKRPTEIVPHIICGDFDSINAHVYSYYKNKSVIFEKCANQENTDLDKCIDVIRGYIRTNDKILILGATGNRFDHTCANISCLYKNASLNSLYLIGENNFLFLLQQGSHIIHVSPDVFCKGCGILPFGGKCTIKTEGLKYNLNDECLSFDTLISSSNEVVQREVKIFNDSPVVWSAQLI”, the “soluble on expression in E. coli” value is “not soluble”.
Next, “MSSCVNTSQTGPKKKISFIIRDEHEYSNRSAVSALQYDAQNGRLFTGGSDTIIRTWSVPHHKDAFSARGGVRSPGKNSPVQYQGSLEQHTDWVNDMILCGHGKILISASNDTTVKVWNIERDNKHGFIDCIRTHKDYVSCLAYAPIVEKAVSASFDHNIFVYDINANFKTVNNLIGCKDSIYSLATTPNLSLVLGAGTEKCIRLFDPRTNEKIMKLRGHTDNVRALVVNDDGTRALSAGSDATIRLWDIGQQRCIATCIAHEEGVWTLQVDSSFTTVYSAGKDKMVVKTPLYDFTKSQLLFKEEAPVKKLLLSEKDNPVSLWVGTWKSDIKRWSIRPSAQLSIGGDEDGPSTSNANHSVSASSSPPVTFKYIRVKDQKGQQSTPELVIPGAPAIKKHAMLSDKRHVLTRDSDGNVALYDVLAARKIKDYGKRIFEEVVDENSRQVYIPSWFVVDSKSGMLQITLDELDALSSWLSSKDAGFDDNDRETKLNYGGMMLRSLFERWPPCKMTNVDAADADDVQKATLNFISLPEHTPLIICEGNGRPLYRLLVGDAGKEFEANELAQIAPMWVIDAIERNQLPKFNKMPFYLLPHPSTNPKQPKKDRLSATEMLQVKKVMEHVYEKILSTNDDITVGSIPLNQIHTKMEMYCNDQRLEPDMDLRTVKHLYWKQSGELLLHYKPVK”: “not soluble”; “TDKVTDADLETLRKLQEEFATELAISRGRVDALEARSADIQAQQFSPNVVLGGQTIFGLAGGFGGNRPGDGEANTIFTYLTQLQLASSFTGKDRFRVGLISGNAANNSFENLQAFNTNMARLAWQGNYDNQVSINSVEYRVAGLGDRVVFTFKPVGFSLGSVLSPNSIYADAGQGAISAFAGSTPILRIGNLDAGLGFDWLLSDEIRLQFAYGTRGSSDSNQGLFGADHSALGLQFLYKPTPSLITGLAYINAYSSDGHLDTGTGSSNADTSGGINEPSQIHALNASMRWQLTNKLVLGAWGGVMVTDSLKSDAVVLSSTYTVSLGIYDPFGRKGDLFGFLYGLPPKLNNGVLIPTADTGNSTHYEVFYRYLVNDNIAITPGFFLVTDPGHISSNNDIFIGAIRTTFNF”: “not soluble”; “MGSDKIHHHHHHMKYLIVVAHPDDEVLGAGASISRWTQNGDIVDVAIMCAEAKARAFRPDDNELEDDTNASTKYLGVDRIFEATFPNIEMNTVPHLRLVQFIESAIKESEPDIVITHHPADTNNDHLQTSMACQEAIRLFQRRPEVKRVKEFWYMEVPSCTEWAINNAMNLFRPNCYVEVGQEGVDAKITALGMYRGVMRPYPHPRSAEYITGLAAVRGSQWGTNYAESFEIVLREY”: “not soluble”.
In the case of “MKPEKRHATESMTMEALLDLLPKDAATDPTGRRLAELVTRIATKRVPVSSFSRIWNLGSLQARVTIGYVAYWLRSRFADSDEKQRLRNEAHLAAALRLFGTMGYLRGAVMKIGQLLANLPEVVPEEFAEVLSALHFEAPPMHFSLVRELFLDEFGREPEELFASFDRQAFAAASLGQVHRARLKSGEEVAVKIQYPGIARTIKADLRNLRLLLQPLCLTNDWQNTLDKLADIEQMLLMETDYEQEARFCREARLLFTTEDRVVVPRVFDDYSTKRVLTTEFLTGCHLDQFLAGNPSQAERDHFTTLLTVATMRIYYRLHWFCADPHPGNFIFMLDGRLGLIDFGCTRAMNGEEWRLICELEQAHQEEDAEQFDRVIARATLYDSPEAMGKEQLAVVRRNVLWNMEPWLKEGLFDFGDREFFMRGIDGLMELTRKRYTRGSPLYLWSTRFVLGGRAVCYQMRGRCEFQEIFRQESAWVCPEPPILEHHHHHH”, the “soluble on expression in E. coli” value is “not soluble”.
For the sequence “AHHHHHHASAKWVCKICGYIYDEDAGDPDNGISPGTKFEELPDDWVCPICGAPKSEFEKLEDGSFKLYSLAREFARDLLFEINGDVVTLSIKGVLLANTSSTSSNFSIFEVSENEFILAIQTSGYVVYLGIEAEEEIEEEVYPSLVRIIISEVMPIINNLVQVAKELSYKGADILLDDNMSSSLREAMYNLLLKHKKGKSPYEQVEVA”, the “soluble on expression in E. coli” value is “soluble”.
As for “MGSDKIHHHHHHAALSTNTVAVEKAPDMVAVMGGEPEVMLDKALEALGGIGNFVKKGQKIVIKPNIGWDRSPELAGNTNPKLVKALVKKCLEAGASKVTVFDHTCDNWQKCYETSGIAEAVKEAGGIIMPANDEKYFKEVSIPGGVNLKSAKIHEALIEADAWINVPVLKNHGGAKMTCAMKNYMGIVWDRRFFHQNDLQQCIADICTWQKKPVLNIVDAYRIMHQNGPQGKSAADVATLKSLIASPNIVAIDTAALRLFNQVKKLDMAAVGHIGKGEALKLGTTNLDNVTIKRIKI”, the “soluble on expression in E. coli” value is on record as “not soluble”.
With “MKTPPINQKSLRETESWKLLESSIIYYEGNPIGTVAAQDPELAALNYDQCFLRDFVPSAFVFLMDGQTDIVRNFLIETLTLQSHEKEMDCFQPGAGLMPASFKVESDGSKEYLVADFGEKAIARVPPVDSCMWWILLLRAYEKATGDLTLAREPKFQAGIKLILDLCLAHRFSMYPTMLVPDGAFMIDRRMGVYEHPLEIQVLFYAALRAARELLLPDGDGEQYLNKVHGRLGALQYHIRNYYWVDLKRLREIYRYKGNEFGKEIANKFNIFSQSIPDWVIEWLPEKGGYLAGNLGPGRMDFRFFALGNLMAILAGLASEEESQRIMNLFAHRWEDLIGYMPVKICYPALQGLEWQIVTGCDPKNIPWSYHNGGNWPVLLWLFTAAALKTGKVELAHEAIAIAEGRLSNDKFPEYYDGNNGRLIGKEARIYQTWSIAGLLVAKQFLANPDHVEFISFPDTFIGPGCSLLEHHHHHH” the entry was “not soluble”.
